± gives the half width of the 95% confidence interval.
Columns and labels:
[1] = folding stability dG unfold from trypsin proteolysis; higher = more stable
Method in brief: (§1)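 How resistant each design was to proteolysis was captured as K50, inferred by Bayesian fitting of sequencing counts. Unfolding free energy was then derived relative to a sequence-predicted unfolded-state K50 and a shared folded-state K50, per protease or combined. Digestion used trypsin and chymotrypsin at 11 threefold-diluted concentrations plus a no-protease condition, on mini-proteins under 80 residues without cysteine in a PA-tagged cDNA display construct. Designs were kept only when AlphaFold2 dimer inter-PAE was above 15.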

[2] = folding stability dG unfold (combined trypsin and chymotrypsin); higher = more stable
Method in brief: as §1

[3] = folding stability dG unfold from chymotrypsin proteolysis; higher = more stable
Method in brief: as §1

Row | Sequence | folding stability dG unfold [1] [kcal/mol] | folding stability dG unfold [2] [kcal/mol] | folding stability dG unfold [3] [kcal/mol]
1 | SAGGSAGGSAKMIFVKNEDGTITMFTLNEDGYLTVTTVTLDKKTKKMTVETKTIKLTDPELLSAGGSAGGSA [r18_503_TrROS_Hall] | 1.16 ± 0.027 | 2.14 ± 0.17 | 2.46 ± 0.081
2 | SAGGEAEVVARAEVTLPDGVKVEVEVVRVDGKLVVRVRVEVRLPPPPPPPPPPLPPLSEEERKKLAEASAGG [r13_760_TrROS_Hall] | 2.09 ± 0.091 | 2.18 ± 0.22 | 2.09 ± 0.16
3 | SAGGSAGGSTITITTVIEKDGELYVIEAKIEVTEVYYDKKTKKKVKVKVKIEIKIEKVPLEDLSAGGSAGGS [r12_809_TrROS_Hall] | 2.96 ± 0.56 | 3.07 ± 0.45 | 3.28 ± 0.23
4 | SAGPPEQKIKIKWYPPDDGQPQEIPGPVDDIKDILDKLGWPVTNIETDPDDNEVEIWVPFPNWWLHIKISAG [r5_521_TrROS] | 0.884 ± 0.036 | 1.53 ± 0.12 | 1.79 ± 0.069
5 | SAGGSAGGGEMELVLTVPPEEVTPEQLLELVEEIREALEKGGAKAEPVKIDPEKGVVILFRVDPSAGGSAGG [r6_850_TrMRF] | -0.273 ± 0.14 | 0.00838 ± 0.26 | 0.258 ± 0.27
6 | SAGGLLVVLPPDLTPEELREKALELAELARKAGDFEVERIELVRDEETDRPYAVLVIRDPRTGKILVASAGG [r13_669_TrMRF] | 1.39 ± 0.014 | 1.23 ± 0.042 | 1.05 ± 0.062
7 | SAGSRVLTLVFEIPGRPEVVENLPEDVVLPDGARLYRDGERLLLVVEREVPSLPVLDADGRPVGPELLSAGG [r19_148_TrMRF] | 0.4 ± 0.027 | 0.85 ± 0.039 | 1.11 ± 0.056
8 | SAMKIEIIEEKEGEIIIKIEATKEEVEELAEELKKKFPGVEVEVEYDKETKKVYIRIKFKKKPSEEELKSAG [r14_600_TrROS_Hall] | 3.05 ± 0.62 | 3.82 ± 0.31 | 3.9 ± 0.33
9 | SAGGSAGGSAGMIVIKNPETKEYYVIKFDGKEYVIELSEDELKELLEKLKGKDVEIKKLPSAGGSAGGSAGG [r11_57_TrROS_Hall] | 2.01 ± 0.16 | 1.96 ± 0.2 | 1.93 ± 0.048
10 | SAGGSAGGSAGGLPPGAKVKVEIEISYDDPFSGPTNEYNSFPVELNFEPPEPIPTDPRLNSAGGSAGGSAGG [r7_522_TrMRF] | -0.683 ± 0.16 | < -1 | -1.38 ± 0.55
11 | SAGGSAGGEERVRLPITLEVPVPLAPVLLVSPDGSERLVPLPSVTLRITLELELTKEEWEKLLSSAGGSAGG [r6_119_TrMRF] | 3.06 ± 0.2 | 3.16 ± 0.15 | 3.36 ± 0.13
12 | SAGGSAGGSKKRTILIQFPNGSPEEAVDNIKNWLRALGNEPIPLEDVKIQWYPGNPGYFQIEISAGGSAGGS [r12_122_TrROS] | 1.81 ± 0.027 | 2.53 ± 0.12 | 2.94 ± 0.042
13 | SAGGSAGGSAGGGSMPVTERIPGSPSSVTTTTFPDGTVTTETTAGPPVTLSPAGGSTLVSAGGSAGGSAGGS [r10_664_JUSTAS] | 0.97 ± 0.073 | 1.08 ± 0.11 | 1.09 ± 0.058
14 | SAGGSAGGSAGGSGPSVVLVSLPDGSYIAFPSGADVNIEIPSSSSGARIVAVIPLSELSSAGGSAGGSAGGS [r4_122_TrMRF] | 0.111 ± 0.059 | 0.518 ± 0.11 | 0.714 ± 0.024
15 | SAGGSPSTVVPTLLTLEIVKKDEKGNETSETIPVLVEDSPEEARERLIEEIEKKYGAEVVKVTVKPESAGGS [r16_511_JUSTAS] | -0.576 ± 0.07 | -0.608 ± 0.18 | -1.22 ± 0.27
16 | SMTTEEKVEVSVTVTPDPNSDNVTLTLTITKRTYAKDENGNWTEVSTETSTITVTLSPEEAAKLAAELLSSA [r9_642_JUSTAS] | 3.75 ± 0.2 | 4.34 ± 0.17 | 4.52 ± 0.099
17 | SAGGSAGGSKKKITVKIEEVKLNPETGKLVLVKIKLPDGKELVFKTPEEIENLPGAEFEVYELSAGGSAGGS [r20_192_TrROS_Hall] | 1.53 ± 0.14 | 1.45 ± 0.27 | 1.47 ± 0.13
